# Experimental data taken from US12630596B2, “Engineered lysin-human defensin protein” (priority 2018, dated 2026).
# Like-named read-outs stand apart in the source and are kept apart here.
# B1: LCD: Catalytic domain (179 aa) of the lysin of C. difficile phage phiC2; SEQ ID NO:2; included as a control (protein)
# chain: MKICITVGHSILKSGACTSADGVVNEYQYNKSLAPVLADTFRKEGHKVDVIICPEKQFKTKNEEKSYKIPRVNSGGYDLLIELHLNASNGQGKGSEVLYYSNKGLEYATRICDKLGTVFKNRGAKLDKRLYILNSSKPTAVLIESFFCDNKEDYDKAKKLGHEGIAKLIVEGVLNKNIN
# notes: Catalytic domain (179 aa) of the lysin of C. difficile phage phiC2; included as a control
# Key:
# C. difficile R20291 [1] = experiment: Minimum inhibitory concentration (MIC) on strain R20291; type: cell-based, Clostridium difficile; settings: strain R20291, BHIS, 37° C. for 18 h
# Procedure: The minimum inhibitory concentrations (MICs) of LHD and LCD were determined using the protocol of Wiegand, et al. (Wiegand, Hilpert et al. 2008) with some modifications, as described previously (Gilmer, Schmitz et al. 2017). In brief, strain R20291 was grown in BHIS and adjusted to ˜5×10^5 cells/ml in BHIS, and distributed into the wells of a 96-well round bottom polystyrene microtiter plate. In the wells of each row, either sterile-filtered lysin or control vehicle (metronidazole, vancomycin and fidaxomicin) was added with a final concertation varied from 200 μg/ml to 0.19 μg/ml (2-fold dilution) (Wiegand, Hilpert et al. 2008). The plates were incubated at 37° C. for 18 h. The MIC was “the lowest or minimum concentration of lysin or control vehicle that prevented the formation of a cell pellet (a measure of growth) on the bottom of the wells” (Gilmer, Schmitz et al. 2017). The MICs were also confirmed by measuring the OD600 values using a Bio-Rad plate reader (Bio-Rad, Hercules, CA).
# [2] = target: Clostridium difficile toxin B (TcdB) (Clostridioides difficile, UniProt P18177); experiment: Inhibition of TcdB cytotoxicity in CT26 cells (cell rounding, non-glucosylated Rac1 Western blot); type: cell-based; settings: pre-treatment 750 ng/ml 1 hr, TcdB 15 ng/ml 5 hrs
# Procedure: (§1) (FIG. 5A) LHD inhibits TcdB-induced cell rounding. CT26 cells in 12-well plates were exposed to HD or LHD at 750 ng/ml (50 times of TcdB concentration) or nothing for 1 hour, followed by exposure to TcdB at 15 ng/ml for 5 hours. (FIG. 5B) Western-blot analysis of non-glucosylated Rac1 in CT26 cells treated with TcdB in the presence or absence of LHD or HD. TcdB glucosylates Rac1 in cells, serving as a readout for toxin cytotoxicity. Quantitation of Rac1 levels in Western-blot was shown in low panel (*p<0.05). (FIG. 5C) CT26 cells were lysed, and the cytosolic fraction was exposed to TcdB (15 ng/ml) with or without HD at 750 ng/ml (50 times of TcdB concentration) or LHD at 1500 ng/ml (same molecular concentration as HD) or nothing for 1 h followed by Western Blot analysis using a monoclonal antibody that only recognizes non-glucosylated Rac1. β-actin was used as an equal loading control. Quantitation of Rac1 levels in Western-blot was shown in low panel (****p<0.0001).
# It was reported that the human defensin protein HD5 (HD) could inhibit TcdB (Giesemann, Guttenberg et al. 2008). Therefore, we evaluated the inhibitory effects of LHD and HD on TcdB. Briefly, CT26 cells in 12-well plates were exposed to LHD, synthesized HD or PBS at 750 ng/ml (50 times of TcdB concentration) for 1 hr, followed by exposure to TcdB at 15 ng/ml for 5 hrs. Total cell lysates were subjected to 12% SDS-PAGE separation, and transferred onto a Nylon membrane. Following blocking for 1 hr at room temperature with 5% skim milk, the membrane was incubated overnight at 4° C. with RAC1 antibody (1:1000, Cat: 610650, BD Biosciences) and β-actin antibody (1:10000, Cat: A5441, Sigma-Aldrich).
# [3] = target: Glucosyltransferase (GT) activity of TcdB (Clostridioides difficile, UniProt P18177); experiment: TcdB glucosyltransferase activity on Rac1 in CT26 cytosolic fraction; type: biochemical, Clostridium difficile; settings: TcdB 15 ng/ml, 750 ng/ml, 1 hr
# Procedure: as §1
# Glucosyltransferase (GT) activity of TcdB was also measured by its ability to glucosylate Rho GTPase Rac1 in cell lysates (Zhang, Shi et al. 2013). CT26 cell pellets were resuspended in a reaction buffer (50 mM HEPES, pH 7.5, 100 mM KCl, 1 mM MnCl2 and 2 mM MgCl2), and lysed by passing through a 30 G needle for 40 times. […]
# C. difficile R20291 [4] = experiment: Optical drop assay, lytic activity on C. difficile R20291; type: cell-based, Clostridium difficile; settings: strain R20291, 200 μg/ml
# Procedure: (§2) The lytic activity of proteins LHD and LCD against C. difficile strains was determined as previously described (Wang, Euler et al. 2015). Briefly, C. difficile strains were cultured in an anaerobic chamber to mid-log phase, and the bacterial pellets were harvested by centrifugation at 3000×g for 5 min. Pellets were washed twice and re-suspended in sterilized ddH2O, and resuspensions were not buffered. Prior to tests, bacterial optical density at 600 nm (OD600) was adjusted to approximately 0.8-1.0. Proteins LHD and LCD were added into the cell re-suspension with the final concentration of 200 μg/ml. The drop in OD600 at 37° C. was measured every 10 minutes for 60 min˜90 min. Bacterial re-suspension with sterilized water was also set as a control. Three repeats were included in each test.
# [5] = test system: C. difficile strains M120, VPI 10463, CD630, LC693, 1377; experiment: Optical drop assay, lytic activity on other clinical epidemic C. difficile strains; type: cell-based, Clostridium difficile; settings: different types of clinical epidemic strains, 200 μg/ml
# From the text: C. difficile strains R20291 (ribotype 027), M120 (ribotype 078), VPI 10463 (ribotype 087; ATCC 43255), CD630 (ribotype 012), LC693 (ribotype unknown, ST201), and 1377 (ribotype 012) were used in this study. Strains M120 and VPI 10463 were provided by Dr. Joseph A. Sorg from Texas A&M University. Strains R20291 and CD630 were provided by Dr. Abraham L. Sonenshein from Tufts University. Strains 1377 and LC693 were epidemic clinical strains in China (Li, Liu et al. 2015, Peng, Liu et al. 2017).
# as §2
# [6] = Clostridioides difficile, read-out: MIC
# Glucosyltransferase (GT) activity of TcdB, sequence (P18177 whole entry): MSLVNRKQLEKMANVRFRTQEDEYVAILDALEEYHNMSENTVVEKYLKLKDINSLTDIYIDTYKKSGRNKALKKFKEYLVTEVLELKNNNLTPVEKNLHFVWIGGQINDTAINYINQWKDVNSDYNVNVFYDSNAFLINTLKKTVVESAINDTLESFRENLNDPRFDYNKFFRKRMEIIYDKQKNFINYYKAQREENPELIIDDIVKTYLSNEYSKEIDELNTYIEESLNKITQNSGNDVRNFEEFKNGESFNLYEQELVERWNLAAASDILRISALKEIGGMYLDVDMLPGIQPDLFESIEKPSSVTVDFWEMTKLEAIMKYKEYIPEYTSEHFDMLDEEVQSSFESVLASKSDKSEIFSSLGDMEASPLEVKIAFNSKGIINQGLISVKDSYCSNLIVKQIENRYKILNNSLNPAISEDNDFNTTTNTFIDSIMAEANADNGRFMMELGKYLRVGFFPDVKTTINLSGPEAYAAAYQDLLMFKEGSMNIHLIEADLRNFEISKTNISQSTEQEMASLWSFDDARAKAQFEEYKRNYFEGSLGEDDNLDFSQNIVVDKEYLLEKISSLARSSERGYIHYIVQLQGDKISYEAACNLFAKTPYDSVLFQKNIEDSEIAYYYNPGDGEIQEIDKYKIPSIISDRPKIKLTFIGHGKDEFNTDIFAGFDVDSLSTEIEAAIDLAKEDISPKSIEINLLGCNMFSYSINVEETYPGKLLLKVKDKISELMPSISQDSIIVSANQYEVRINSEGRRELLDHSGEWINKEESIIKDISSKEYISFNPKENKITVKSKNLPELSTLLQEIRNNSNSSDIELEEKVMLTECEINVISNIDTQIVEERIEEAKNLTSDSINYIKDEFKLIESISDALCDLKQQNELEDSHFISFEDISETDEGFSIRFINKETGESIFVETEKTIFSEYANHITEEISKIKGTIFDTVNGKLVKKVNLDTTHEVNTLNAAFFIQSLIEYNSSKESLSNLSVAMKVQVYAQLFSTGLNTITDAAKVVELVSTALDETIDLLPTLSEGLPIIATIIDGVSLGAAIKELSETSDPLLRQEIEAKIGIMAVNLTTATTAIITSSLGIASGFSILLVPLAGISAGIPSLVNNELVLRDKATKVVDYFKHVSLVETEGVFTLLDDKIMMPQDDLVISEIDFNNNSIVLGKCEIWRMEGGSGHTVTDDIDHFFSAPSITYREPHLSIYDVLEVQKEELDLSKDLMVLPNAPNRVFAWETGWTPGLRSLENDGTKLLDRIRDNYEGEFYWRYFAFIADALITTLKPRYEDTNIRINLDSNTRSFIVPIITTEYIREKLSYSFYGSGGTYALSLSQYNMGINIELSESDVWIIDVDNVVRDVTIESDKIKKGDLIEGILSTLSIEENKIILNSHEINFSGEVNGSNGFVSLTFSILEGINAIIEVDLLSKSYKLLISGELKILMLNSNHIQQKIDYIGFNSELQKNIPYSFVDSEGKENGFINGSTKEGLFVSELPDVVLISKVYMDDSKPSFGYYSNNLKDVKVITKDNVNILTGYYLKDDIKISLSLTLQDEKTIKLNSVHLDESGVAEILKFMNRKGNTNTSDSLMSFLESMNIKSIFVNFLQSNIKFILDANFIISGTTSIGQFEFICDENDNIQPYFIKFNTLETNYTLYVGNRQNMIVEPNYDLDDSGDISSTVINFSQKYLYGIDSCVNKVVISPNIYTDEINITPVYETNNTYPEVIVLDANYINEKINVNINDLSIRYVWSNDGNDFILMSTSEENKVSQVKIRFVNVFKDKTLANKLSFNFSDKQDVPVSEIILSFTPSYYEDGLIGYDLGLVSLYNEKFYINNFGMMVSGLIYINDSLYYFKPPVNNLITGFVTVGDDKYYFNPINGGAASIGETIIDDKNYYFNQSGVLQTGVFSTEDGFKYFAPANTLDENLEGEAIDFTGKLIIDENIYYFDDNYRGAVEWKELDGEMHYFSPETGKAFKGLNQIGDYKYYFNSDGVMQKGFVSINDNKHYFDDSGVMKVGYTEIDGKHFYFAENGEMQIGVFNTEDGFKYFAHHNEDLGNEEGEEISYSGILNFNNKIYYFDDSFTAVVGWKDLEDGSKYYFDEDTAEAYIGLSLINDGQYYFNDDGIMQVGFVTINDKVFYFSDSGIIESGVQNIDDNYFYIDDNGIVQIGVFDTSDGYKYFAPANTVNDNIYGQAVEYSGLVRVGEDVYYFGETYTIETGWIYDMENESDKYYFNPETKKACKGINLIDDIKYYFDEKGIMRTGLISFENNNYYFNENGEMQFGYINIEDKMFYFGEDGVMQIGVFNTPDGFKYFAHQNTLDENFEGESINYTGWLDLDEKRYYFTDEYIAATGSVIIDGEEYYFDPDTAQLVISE
# Clostridium difficile toxin B (TcdB), sequence (P18177 whole entry): as above
Molecule,MIC (C. difficile R20291 [1]; [6]) [µg/mL],glucosyltransferase activity of TcdB [3],lytic activity (drop in OD600) (C. difficile R20291 [4]),other results
"Cc1ncc([N+](=O)[O-])n1CCO [Metronidazole, metronidazole]",4,,,
"CCc1c(Cl)c(O)c(Cl)c(O)c1C(=O)O[C@H]1[C@H](O)[C@H](OC)[C@H](OC/C2=C\C=C\C[C@H](O)/C(C)=C/[C@H](CC)[C@@H](O[C@@H]3OC(C)(C)[C@@H](OC(=O)C(C)C)[C@H](O)[C@@H]3O)/C(C)=C/C(C)=C/C[C@@H]([C@@H](C)O)OC2=O)O[C@@H]1C [Fidaxomicin, fidaxomicin]",0.25,,,
"CN[C@H](CC(C)C)C(=O)N[C@H]1C(=O)N[C@@H](CC(N)=O)C(=O)N[C@H]2C(=O)N[C@H]3C(=O)N[C@H](C(=O)N[C@H](C(=O)O)c4cc(O)cc(O)c4-c4cc3ccc4O)[C@H](O)c3ccc(c(Cl)c3)Oc3cc2cc(c3O[C@@H]2O[C@H](CO)[C@@H](O)[C@H](O)[C@H]2O[C@H]2C[C@](C)(N)[C@H](O)[C@H](C)O2)Oc2ccc(cc2Cl)[C@H]1O [Vancomycin, vancomycin]",4,,,
"HD5: Human alpha-defensin 5 peptide (32 aa), synthesized; SEQ ID NO:3 (ATCYCRTGRCATRESLSGVCEISGRLYRLCCR) [reference compound]",,significantly inhibited,moderate lytic activity,cell rounding caused by TcdB [2]: decreased cell rounding; non-glucosylated Rac1 in cells (readout of cytotoxicity of TcdB) [2]: inhibited the cytotoxicity
B1,,significantly inhibited,potent lytic activities,MIC (C. difficile R20291 [1]): 1.56 µg/mL; lytic activity (drop in OD600) [5]: potent lytic activities
